Target: human CD8 on cells (HPBALL cells, TALL1 cells, CD8+ T cells of human whole blood and PBMCs) (human) (UniProt P01732)
Assay: flow cytometry of human whole blood, AF647-labeled OKT8 at 20 ng/mL against CD3 APC-Vio770

Sequence of human CD8 on cells (HPBALL cells, TALL1 cells, CD8+ T cells of human whole blood and PBMCs) (human) (P01732 22-234 limits assumed): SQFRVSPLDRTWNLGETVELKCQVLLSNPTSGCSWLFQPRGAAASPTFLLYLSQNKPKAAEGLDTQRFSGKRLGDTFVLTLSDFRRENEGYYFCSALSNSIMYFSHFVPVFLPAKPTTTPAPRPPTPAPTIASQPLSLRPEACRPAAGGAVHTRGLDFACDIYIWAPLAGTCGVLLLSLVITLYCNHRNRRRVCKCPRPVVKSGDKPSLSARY

share of events in Q2 (CD3 positive, mAb/VHH AF647 positive): 19.7%
share of events in Q3 (CD3 negative, mAb/VHH AF647 positive): 0.73%
B1: OKT8 anti-CD8 IgG labeled with ALEXA FLUOR 647 (antibody, from another filing, V domains shown)
VH: EVQLQQSGAELVKPGASVKLSCTASGFNIKDTYIHFVRQRPEQGLEWIGRIDPANDNTLYASKFQGKATITADTSSNTAYMHLCSLTSGDTAVYYCGRGYGYYVFDHWGQGTTLTVSS
VL: DVQINQSPSFLAASPGETITINCRTSRSISQYLAWYQEKPGKTNKLLIYSGSTLQSGIPSRFSGSGSGTDFTLTISGLEPEDFAMYYCQQHNENPLTFGAGTKLELK

Reference: US20230192853A1
